These results are taken from article PMC7614388, “Diversification in the inositol tris/tetrakisphosphate kinase (ITPK) family: crystal structure and enzymology of the outlier AtITPK4” (Biochemical Journal, 2023).

One may read the Km as the concentration of substrate that gives half-maximal velocity.

Substrate in this series: Nc1ncnc2c1ncn2[C@@H]1O[C@H](COP(=O)(O)OP(=O)(O)OP(=O)(O)O)[C@@H](O)[C@H]1O
As to the kind of experiment: HPLC kinase assay, Michaelis-Menten fit. It is filed as biochemical, Arabidopsis thaliana. To be noted: 1 mM Ins(1,4,6)P3, ATP 0-5 mM, 6 mM MgCl2, 20 mM HEPES pH 7.3, 25 °C, 3 µM enzyme.

B1: AtITPK4 (Arabidopsis thaliana) (protein)
chain: MKGVLLDESVLFSPESEDSSPSLRESVPSLLRLLRYSMIRTGISYGLDLPENKVDLLRKTAAEYSINCLPLETSLTSVTFGDTLKAWYSDGSILYVASSRKEEILRELSPSQLVVLLDVEGDSLEDPNIIHIHSLEELPMTICCINKKAMGDGAAIVAYIMKPSRVEDFAKRGALPMYPTSCGLIFLPLMFEFPLASQLKHADIIFHKATDEILSIELNCSDSKSSVAVTFSTGMEKLKKYMEDQNACAIVDPIRNIYPVVDRLKMQHILLGLEGLGAAGRKIRGACFLKIDSYDEPDLAQNLSRAGLSLPCIVKPQVACGVADAHSMAIVFRVEDFKNLNTPVPAIIQEYVDHSSRIFKFYVLGETIFHAVKKSIPSSSSLRKSAEENGLKPILFDSLKSLPVDSANQNPVSEIDLELVTEAATWLRKKLDLTIFGFDVVIQEGTGDHVIVDLNYLPSFKEVPDNIAVPAFWEAIRNRFDQHVQEKH
notes: full-length; pOPINE, non-cleavable C-terminal 6xHis tag kept; Ni-NTA purified; HAD-like domain 1-150, ATP-grasp kinase domain from 151; no evidence of homo-oligomers
Consider B1, for which the Km turned out to be 52 ± 7 µM.
